The record followed here is the RNAGym collection of RNA variant scans (doi:10.1073/pnas.2313332121).

B1: TPR t1 (parent)
chain: GACCAAUCUGCCCUCAGAGCUCGAGAACAUCUUCGGAUGCAGAGGAGGCAGGCUUCGGUGGCGCGAUAGCGCCAACGUCCUCAACCUCCAAUGCAUCCCACCACAUGAUGAUGCCUGAAGAGCCUUGGUUUUUUG

The variants in the series derive from B1. As to the kind of experiment: polymerase ribozyme fitness, log enrichment relative to wild type (log ratio); higher = more active; in vitro selection for triplet polymerase activity. The method in brief: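 One round of in vitro selection, in triplicate, was applied to PCR-built, transcribed mutant libraries of each subunit of a heterodimeric triplet polymerase ribozyme. The steps were annealing with a biotinylated primer, partner subunit and triplets, incubation frozen at −7 °C, gel excision of extended constructs, streptavidin-bead capture and RT-PCR. Fitness is the logarithm, base 2, of genotype enrichment over wild-type enrichment from inverse-variance-weighted replicate averages of Illumina-sequenced inputs and outputs, keeping genotypes with ≥10 input reads and ≥1 read per output.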
With C13U U14G A16U G93U G120C, the “polymerase ribozyme fitness (log ratio)” value is -3.43.

For the variant C15A C49A C86A A95U G110A C123A, the “polymerase ribozyme fitness (log ratio)” value was -5.76.

Regarding C15U A46C C70G, the “polymerase ribozyme fitness (log ratio)” value was -4.3. Turning to C15A A74G G113A, the “polymerase ribozyme fitness (log ratio)” value was -4.02. The result for C15G A100U reads -4.44. As for C15G C20U C73U U78G A111G, the figure is -6.71. As for C13U G113A, the figure is 0.0113; as for C15G A50C, -2.38; as for C15A G127A, -3.63.

Turning to U14G G61U C89A C99G G113C C115U, the “polymerase ribozyme fitness (log ratio)” value is -6.86. As for U14G A24G G61A U78C, the “polymerase ribozyme fitness (log ratio)” value was -4.74. For the variant C15U G25A, the “polymerase ribozyme fitness (log ratio)” value was -4.87.

Consider C15G G48U A50G G63C U106A U109C, for which the “polymerase ribozyme fitness (log ratio)” value is -6.17. As for C15A C70U C114U, the figure is -5.04; as for C15G U55A C70A A83U C97U U130C, -5.79. For the variant U14A G71C, the “polymerase ribozyme fitness (log ratio)” value is -3.09. As for A16G G61C A84C G117A A119G, the figure is -2.13; as for C15U A29U C40A A46C C123A, -5.62.

For C15G G25U A37U G69U G120C, the “polymerase ribozyme fitness (log ratio)” value is -7.24.

Take C15G C49G U106C C124U: the “polymerase ribozyme fitness (log ratio)” value is -2.11.

With A16G A27G U32C A50G, the “polymerase ribozyme fitness (log ratio)” value was -4.47. The result for C15G C73A C88G reads -3.31.

Turning to C13U U30G U55G A111U, the “polymerase ribozyme fitness (log ratio)” value is -4.31. The result for C15A C49G C98U reads -3.16; that for C15U G52A U59A A118U, -2.24; that for U14G A46U A74G C101A, -3.18. As for A16C G117U A121C, the figure is -4.48. The result for A16G U106A reads -0.109; that for C15U C88G A103C C115G, -6.98; that for C15G C124U, -0.148. As to A16C C40U G52A U59G U112A, the “polymerase ribozyme fitness (log ratio)” value is -1.53. For C15A C40A C56G, the “polymerase ribozyme fitness (log ratio)” value is -6.31. The result for C15U A95G reads -1.71; that for C15A A84U, -1.41. Take C15U U38G G45A G60C A74U: the “polymerase ribozyme fitness (log ratio)” value is -4.34. As for A16C C53U C86G, the figure is -2.99; as for A16G G35A A37G A84U A121G, -3.58; as for C13U U38G G63U C79G C88U C99G G110U G113U, -6.9. C15G C40A: the “polymerase ribozyme fitness (log ratio)” value is -3.83. As to C15G C40U, the “polymerase ribozyme fitness (log ratio)” value was -2.91. The result for U14A C73A A74C G120A reads -0.495; that for U14G A74U, -2.04; that for C15U A18U C20U C28G G61U U87G C115U, -5. U14A G61A: the “polymerase ribozyme fitness (log ratio)” value was -1.88. As for C15U G36C U54C C85A G117U G127C, the figure is -5.33.

A16G U112A A119G: the “polymerase ribozyme fitness (log ratio)” value turned out to be 2.06. As for U14A A24G A119G, the figure is -4.72; as for C15G C86U U116G, -2.95; as for A16G C94A A95U, -4.15. The result for U14G G48U C94A C101U G120C reads -2.13. On to C15U U21C C49G G117A, for which the “polymerase ribozyme fitness (log ratio)” value amounted to 0.389. The result for A16G C70U C76A reads -2.84.

Turning to C15A A66G, the “polymerase ribozyme fitness (log ratio)” value is -2.15. Regarding A16C G25U A26G, the “polymerase ribozyme fitness (log ratio)” value is -4.77. As for U14G A43G G52A C53A G77C A100U, the figure is -5.52; as for C15U A43G C124A, 0.00445. The result for C13U G71C reads -0.732. As for C15G G120A, the figure is -1.53; as for U14C U54G, -1.76; as for C15U A43C G69A C123U C124A, -5.69. As for C15A C40U C115U U131A, the “polymerase ribozyme fitness (log ratio)” value is -1.85.

U14G U55C C70A: the “polymerase ribozyme fitness (log ratio)” value is -3.8. C15A G45A C89G G93C: the “polymerase ribozyme fitness (log ratio)” value is -4.59. As to C15U G58A C85A G113U, the “polymerase ribozyme fitness (log ratio)” value is -5.84. The result for C15U G63U reads -3.19. Regarding C15U A91C, the “polymerase ribozyme fitness (log ratio)” value was -2.75. As for C15U G71U C101U, the figure is -1.24; as for C15U G17A C40G C64A A90G C94A C104G G120C, -7.98. As to C15U C28U G44U C62U U87C U106C, the “polymerase ribozyme fitness (log ratio)” value is -5.37.

Take C15A A27C U55G: the “polymerase ribozyme fitness (log ratio)” value was -5.9. As for C15A A41C C72A, the figure is -2.94; as for C15G C73U A75G G107U U109A C124G, -5.07. As for C15U A27C C56G C73U C97U, the figure is -6.81; as for C15A A43U C49U A91U, -3.45; as for C15A C80U A84U, -2.49.

With A16G A84U A90C, the “polymerase ribozyme fitness (log ratio)” value was -2.9. For C15A C40U U87C G93C, the “polymerase ribozyme fitness (log ratio)” value was -3.02.

On to C15U A43U G69U C88U A91C G120C, for which the “polymerase ribozyme fitness (log ratio)” value is 0.39. As for C15U A83C A91G A111G, the figure is -2.96; as for C15U C115U, -1.42; as for U14A G19C A83C C89A A111C C114G, -5.57.

C15U A43C C70A C123U C124A: the “polymerase ribozyme fitness (log ratio)” value was -4.89. As for C15A G117A, the figure is -2.72; as for C15U G69U C102A, -1.95. In the case of C15A A84G C94U, the “polymerase ribozyme fitness (log ratio)” value was -2.76. Regarding U14C G77A, the “polymerase ribozyme fitness (log ratio)” value is -2.6.

Regarding U14G C123U, the “polymerase ribozyme fitness (log ratio)” value was -0.161. The result for C15A C20U G48A A91U reads -4.59; that for U14A C22U A37U C79U A83C A84C, -5.43; that for C15U U78G C86U G113C, -5.8. On to C15G C70G, for which the “polymerase ribozyme fitness (log ratio)” value was -3.8. As for C15U G71A C79U, the figure is -1.53. As for C15U C80A, the “polymerase ribozyme fitness (log ratio)” value was -4.32. The result for A16G A46C G120C reads -0.418; that for U14A G63C C82U U112G, -1.65; that for C15G U59C C86U U116G, -4.2.

As to C13U U14G C80U C115A, the “polymerase ribozyme fitness (log ratio)” value was -3.73. For the variant C15G A26U G44C G117C, the “polymerase ribozyme fitness (log ratio)” value is -2.36. As for C15U U129C, the figure is -1.86. The result for C15G A27G reads -4.15; that for C15U G51A C72G A121C, -2.34.

As to U14C G61U A75C A105C, the “polymerase ribozyme fitness (log ratio)” value was -3.69. For the variant U14G C73A A90U, the “polymerase ribozyme fitness (log ratio)” value is -3.66. As for C15U G69C, the figure is -2.64; as for C15U G51U G60A, -5.07. The result for U14C G17C C20A A24U A43C C85U A111G reads -6.11; that for U14A G71A U130A, -3.52.

On to A16C G48A C73U, for which the “polymerase ribozyme fitness (log ratio)” value was -3.7. In the case of A16C C56A C97G, the “polymerase ribozyme fitness (log ratio)” value was -5.42. As for A16G U92C U129C, the figure is -3.37. The result for C15G C40G C56A reads -3.88; that for C15U C124U, 0.776; that for U14G U38G, -3.56. As for C15A U116A, the figure is -4.69; as for C15A U133C, -1.06; as for A16U A18G, -3.02. C15U U55G G69A: the “polymerase ribozyme fitness (log ratio)” value was -3.22.

Take C15A C72G: the “polymerase ribozyme fitness (log ratio)” value was -2.3. The result for C15G C79G reads -4.93; that for C15A A74G U78G C79U G110U, -3.12. As for C15A A46C, the figure is -3.02. As for C15U G127A U129A, the figure is -4.11; as for C15U A16U G23A G63A G93C C114G, -7.78; as for C15U G110C, -4.52. As for C15G G25C A41U U109A, the “polymerase ribozyme fitness (log ratio)” value is -5.74. The result for C15U G58C C72A C102G G107U A121C reads -6.59. As for C13U G128C, the figure is -1.81; as for C15A G71U A90U U106C A118U, -4.15; as for C15U C22A U54A C124A, -3.89. As for C15A U32C, the figure is -1.58; as for A16G G44U G117A, -3.84. For C15U A91G A105G U112A, the “polymerase ribozyme fitness (log ratio)” value is -3.8. As for C15A G35C U87A, the figure is -5.96.

A16C C82G G120C: the “polymerase ribozyme fitness (log ratio)” value is -1.47. For U14A G48U, the “polymerase ribozyme fitness (log ratio)” value was -2.9. On to C15A G36A A50C G65A G69U, for which the “polymerase ribozyme fitness (log ratio)” value was -7.38. In the case of U14C C15A A46C, the “polymerase ribozyme fitness (log ratio)” value is -5.53.

As to U14G A27C C85A U109A C124A, the “polymerase ribozyme fitness (log ratio)” value was -6.27.

For the variant C15A U54A C56G, the “polymerase ribozyme fitness (log ratio)” value is -3.37. C15U A37G C53U U116C: the “polymerase ribozyme fitness (log ratio)” value is -2.52. Take A16C G71C U126C U131A: the “polymerase ribozyme fitness (log ratio)” value was -4.45. Regarding C15U C40A G60C, the “polymerase ribozyme fitness (log ratio)” value was -2.3. Turning to A16U A18C C86A, the “polymerase ribozyme fitness (log ratio)” value was -4.71. The result for C15A C76U A83U C86A reads -3.37.

C15U A18U C34U A41G G48C U106A A111G C124G: the “polymerase ribozyme fitness (log ratio)” value was -6.92. The result for U14G C82U G93C reads -2.71. As for U14G U87G G127C, the figure is -4.35; as for C15U C56U G69U C102A, -5.73; as for C15G G61C A90G U96A, -6.02.

As for U14C G93A G120C, the “polymerase ribozyme fitness (log ratio)” value is -1.52. C15U G42U U87G C88A C101U G113U: the “polymerase ribozyme fitness (log ratio)” value is -5.85. As for C15G C86U G110A A118U, the figure is -3.91. Take C15U G60A C73U U78A G135U: the “polymerase ribozyme fitness (log ratio)” value is -1.76. As for C15U A74U A83C A100U U116A, the “polymerase ribozyme fitness (log ratio)” value is -5.53.

Consider C15U G60A, for which the “polymerase ribozyme fitness (log ratio)” value is -0.966. Regarding U14A G44C G61U C85G U96C G113U, the “polymerase ribozyme fitness (log ratio)” value was -6.21. The result for C15A G69U G77U G122A C123A reads -1.41; that for U14G A18U G61A C115A U129A U132A, -3.2. As for A16C U106A, the figure is -2.82; as for U14A A50G, -2.52; as for U14A C79G A83U, -5.11. Consider C15U C76A, for which the “polymerase ribozyme fitness (log ratio)” value is -1.94. The result for U14C A37U reads -1.93. As for U14A C82A C98G G110C, the figure is -7.59; as for A16G G42U C102U C124G, -3.81; as for U14C G42C U92G, -4.23. The result for C15G C22A G52C A119G reads -5.02.
